# Measurements from the DeepSol protein solubility set.
# Test: soluble on expression in E. coli; label from the status in PepcDB or PDB records
row,Sequence,soluble on expression in E. coli
1,MGSDKIHHHHHHMAVIYYDKDADLNLIKDKKIAIIGYGSQGHAHALNLKDSGLNVVVGLREGSKSWKKAEEQGLTVKTIEEAAKEADIIMILIPDEHQPEIYKKYIEKHLTEGKMLMFAHGFNIHYHQIIPPKNVDVTMIAPKSPGHIVRREYVEGRGVPALVAVYQDYTGKAKDIALAYAKGIGVTRAGVIETTFKEETETDLFGEQAVLCGGVTALIKAGFETLVDAGYQPEIAYFECLNELKLIVDLIYEGGLSFMRYSVSNTAEYGDYISQEKIVTKEVRENMKQMLKDIQTGKFAKDWILENQAGRPYFYTMRKKESEHLIEKVGKELRKMMPWLKERNVDEE,not soluble
2,MWTNTFQEGLKIVGENISLSLPDGRQELFRLTDGAISSDATTGTLSKDQAGWRYDYRDGTSSLFDVQGRLIQRKVRGQVITITYPNLSTTKAKDGFGNTLTVSWNATKQPYLVDYNGSLKVEYLYDGGARLVSKKTTSQGLNRTRKYLYADSGNAGLMVGIIDEQGTRYATWTYDNQGRAISSEHANGAEKVSLAYNDDGSTTVTNEYGKQATYRFQVIQGIKRIVAIEGQPSPNCPSSNSTFTYDDQGLLTSKRDNNGNLTTYQYNARGLETSRTEAAGTAQARTITTDWHPTLFLPVQVSEPGRITRYQYDAEGRKTGETVTTR,not soluble
3,MKTINSVDTKEFLNHQVANLNVFTVKIHQIHWYMRGHNFFTLGEKMDDLYSEFGEQMDEVAERLLAIGGSPFSTLKEFLENASVEEAPYTKPKTMDQLMEDLVGTLELLRDEYKQGIELTDKEGDDVTNDMLIAFKASIDKHIWMFKAFLGKAPLE,soluble
4,MGSDKIHHHHHHMLRRYRKLGEILLEKGFITREELDKALEIQKEERKPLGEVLIETGYITEDQLLEALSEQYGVPILKELPKNIPLNVVGSIPKNIIESLHVIPVEKKEDGTLVVVTDNGTNIPRIKQEIRFLTGKNPEIYLVTSRDFSVLYQTYVLGVPLELFEEPYVAIEETPEQVEEEEEEEREVEEAPIVRLVNNIVNRAIEMGASDIHIEPMKRTVRVRFRIDGILRKVLEYQKPQHNSVVARIKIMSGLDVSERRLPQDGKFYTIKGGEQYDFRVSTMPSTFGEKVVMRILKVSDANKRLEELGYSEYNLKRILSLLEKPYGIILVTGPTGSGKSTTLVAMINYLKSESVNIVTAEDPVEYTIEGVTQCQVFPEIGLTFARYLRAFLRQDPDIIMVGEIRDRETAQLAVEASLTGHLVLSTLHTNTAAGAVSRLIEMGIDPHLLGASLIGIIGQRLVRKLCDECKMPGEVRDEQVKSYFEQFFGKVPDQIYYPSEEGCPACKGMRYRGRMAIGEVLIVDEELRELISSKASETEIAKLAVKKGMRTMFQDALEKVLLGQTSIEEVFRVTTPL,not soluble
5,SNPAAEAEFNILLATDSYKVTHYKQYPPNTSKVYSYFECREKKTENSKLRKVKYEETVFYGLQYILNKYLKGKVVTKEKIQEAKDVYKEHFQDDVFNEKGWNYILEKYDGHLPIEIKAVPEGFVIPRGNVLFTVENTDPECYWLTNWIETILVQSWYPITVATNSREQKKILAKYLLETSGNLDGLEYKLHDFGYRGVSSQETAGIGASAHLVNFKGTDTVAGLALIKKYYGTKDPVPGYSVPAAEHSTITAWGKDHEKDAFEHIVTQFSSVPVSVVSDSYDIYNACEKIWGEDLRHLIVSRSTQAPLIIRPDSGNPLDTVLKVLEILGKKFPVTENSKGYKLLPPYLRVIQGDGVDINTLQEVCVLY,not soluble
6,MDENLRQLAESILTDLTQDAPIANTMLKAKVFASKKNDKDLLSWIEHELNGYEENLPKYRLLDAGVKVDIHRGFQEVLGYNYPMGMVKDEKVRERLLHLPIHGSISEVEELSTKSGEGTIHIDIPIEIWYHHMRHCINGDIQRAYQFATVASVKQIMVKIKSLLIDYFLKIDKGESLSFLSLIKKETPTMQIIAGIVNTGS,not soluble
7,MAPVIRRAKEIDLYCLNSLMYKLHDEHHQQCPDLFKTASEIEEEKSIARYLDDPECMVYVAEMDDVIIGFITGHFCELISTVSKLVMMATIDELYIEKEYRREGVAEQLMMRIEQELKDYGVKEIFVEVWDFNKGALEFYNKQGLNEHIHYLRKPLNRLEHHHHHH,soluble
8,MSLTYDLIITDSHVMTPNGMVEKNIVIDSGKIKLITNDTPTCDKKIKGSGLVSIPGVIDPHVHYGVYSPIDQAAKTESHAAAIGGVTTMIRMFRLEGSYKDSLQKHLLASQNSHYIDYTIHASIFDTSQIDEMKYCTENQILSFKIYMNLGGDVGHVYMEMNPGEEKLISSHVNVTNELVEKIVKRAGELKCPVLVHAEDYQECACAMKTEQEKKHDGLNSWSESRSPDFEAKSIKTICEYGRKYDCVIYFVHIGSKLALEQIQIEKNNGTKIFVETCPHYLTLSHETQDGYLAKVMPPIRTKNDVEYVWESLQKNHINTIGTDHVANQLKLKLGGDDVWGALAGFPGIGTSLPILLSEGINKNRITLDQLVNLTSANTSKIFGLSDKGNISTGYEGHHHHHH,soluble
9,MGTEFNGLFDEWAHTYDSFVQGEDIQYKEVFAHYEDILEDVVNKSFGNVLEFGVGTGNLTNKLLLAGRTVYGIEPSREMRMIAKEKLPKEFSITEGDFLSFEVPNSIDTIVSTYAFHHLTDDEKNVAIAKYSQLLNKGGKIVFADTIFADQDAYDKTVETSKRKRFPPVSKRFANGILYTYSSYADYFLEHHHHHH,soluble
10,MNKLRRQLSMNSLLIDTSNQPLSVALMQNDEVLAEITTDSKQNHSVQLMPAISQLFEQSKIAKQQLDAIIVAEGPGSYTGLRIGVTVAKTLAYALDVKLYGVSSLKALAATIDHTDKLLVPVFDARRQAVYTGIFQWQNGQLVTILEDQYMSIEALRAFLEDLNQPFIYIGKDTIKLQDELQGEVIAQLPNASVMYQLIDKPTDVHTFTPKYHKLAEAERNWINSQKNN,not soluble
11,MGSDKIHHHHHHMLKNSAKNFVENIEKKLYLSIKEKTDSITFKLEKVLKAFSDSHLNVQHFASLTGYGHGDLGRDIIDKIFANVLDAEKAAVRLQLVSGTHAITSSLFGVLRPGDGLLSVTGRPYESLEEVIGLRGNGKGSLIEFGIAYEEISLKDDGNIDFLALEKALKIPRKLIFIQRSCGYTWRPSLSIEVIKEICYLCHKIQPNCICFVDNCYGEFVETNEPTSVGADLIAGSLIKNLGGTIVPTGGYIAGKADLVDKACCRLTAPGIGSEGGITFDLNRTILQGLFLAPQMVSEALIGAEIISTSFSELGFKVLPTPASKRTDLIQIVRIGDPKILQIICRSFQEKSPIGSFLDPIPAPMPGYENNLVMAGGTFVDGSTSEFSADAPMKPPFDLFIQGGSHRAHVKIALIHALSNLFQAGLIKLPQND,not soluble
12,MGSDKIHHHHHHMRKDEYRATLLEPNVWHIADYRGDSMYLVVGEEKALLVDTGMGEGDLKGFVRSITEKPVEVVLTHAHWDHIMQANQFEKVYLNHRDFQIIELFKINVNYENFLNVKEGDRFDLGGRTLEVIEVPGHTPGSIVLLDRENRLLFSGDSVGAGHTWMHLPGCLPLREYLKSLKKLKETDSFEKIYHGHLTGTQLKPFGPDYLDDLIKAVEGVIDGSLRGEP,not soluble
13,MSPDKQAAALPRRERNRQAAAASPENSRGKGRRGQRGKNRGCVLTAIHLNVTDLGLGYETKEELIFRYCSGSCEAAETMYDKILKNLSRSRRLTSDKVGQACCRPVAFDDDLSFLDDSLVYHILRKHSAKRCGCI,soluble
14,MTRPKLELSDDEWRQKLTPQEFHVLRRAGTERPFTGEYTDTTTAGIYQCRACGAELFRSTEKFESHCGWPSFFDPKSSDAVTLRPDHSLGMTRTEVLCANCDSHLGHVFAGEGYPTPTDKRYCINSISLRLVPGSV,soluble
15,MGSDKIHHHHHHMRVYIGCGGYTDEDWTAPGLIYEGVKKDAFLETYAHHFDAVELNSSFYAIPGLKAFEGMVRKSGGWVRFAVKLNKVFTHVRAPTDTDFDRMLQSPEPLREAGMMGPYLAQFPYSFHRTAANRKYLALLTERFAGHELAVELRHASWDKPEVREGMGEFGIIWVSPDYPPVGGMPEPQVHVTGDVGYLRLHGRNRETWWEGQSAGERHDYLYNRAEMDEWAEKIAAVAGDLSELYVFFQNTTGGHALKNIPMLREALNARGVPVQTPEAHDGGRLL,not soluble
16,MVMATRVKNVGNWRIMPDATLAASYQAYKRCQNRRPDKAFTPHPAISAPMPDATLAASYQACKMCQNRVGRIRRSRRIRQLEHHHHHH,not soluble
17,MNSSTENVTLKLKSEQLDIAKQWIQTEDVKAYKETSSIQKTFTIPVEREELVIEKIPTASDDKKEVIRIPLSEEEVNFSKHRIILEDVSIYKNQIEDVRHIEETLKKENPKIETFGNAKVIKKLEHHHHHH,not soluble
18,MRANIWQILSVSVLFFFGTAIGQAQSRNRTYEAYVKQYADEAIRQMSRYNIPASITIAQALVETGAGASTLASVHNNHFGIKCHKSWTGKRTYRTDDAPNECFRSYSAARESYEDHSRFLLQPRYRPLFKLDREDYRGWATGLQRCGYATNRGYANLLIKMVELYELYALDREKYPSWFHKSYPGSNKKSHQTTKQKQSGLKHEAYFSYGLLYIIAKQGDTFDSLAEEFDMRASKLAKYNDAPVDFPIEKGDVIYLEKKHACSISKHTQHVVRVGDSMHSISQRYGIRMKNLYKLNDKDGEYIPQEGDILRLR,not soluble
19,MELESKMGAFCGAAQSNYDDACVAFSAANKCAPIERETGVKKLADKLNPEQPHKLSVMDVKLITKASGDYTIVNSLLYSLDMVAVAVDKNGESETFVKRTLDNSIYAGELAQEALKHAGQKRMTGRSKNTIVKKAHTAIGNLVLLINDMEGRTPNASSFLSMGMDLLSSGVTVPGLA,not soluble
20,MLVLGDAHATTPGRRRALFAAYRAANESVAVQAGDLMYYDLPVQTYFIGGNNEDFDAIDALRNGRVESDDVANATLLNSTAATVDGRRVAGLTGNYAPTQFDKPRAVLRGDRRRHFVRSDVEAVMDLDDIDIFVAHEAPNGLPVEEDYDVGCQHIDDILDALQPSLCLVGHHHQHAECDYGDTHVVGLEPAWESYYVVDPDTLAVTRHDTPPALEHHHHHH,not soluble
21,GHMATIHPTAIVDEGARIGAHSRIWHWVHICGGAEIGEGCSLGQNVFVGNRVRIGNRVKIQNNVSVYDNVFLEDDVFCGPSMVFTNVYNPRAAIERKSEYRDTIVRQGATLGANCTVVCGATIGRYAFVGAGAVVNKDVPDFALVVGVPARQIGWMSRHGEQLDLPLRGNAEATCPHTGERYILTDGVCRLA,soluble
22,MGLHVPADQHDLDFTRLGPWFSVMVNGEGQRYKVSGQVTHVKPPQSVGFTWGWHDDDDRRGAESHVMFIVEPCAKGARLILDHRELGDDEMSLRHEEGWTSSLRKLAAELEHHHHHH,not soluble
23,MEDKEAVRRGVTLFALPAHAGEGAKAIWQTCDVIWSALGDSSEDVNWYTKRATLSAVYSATVLYWLGDETPGHEATWEFLDRRIDNVMQFEKFKADVQKNPLLKPLLAGPNWLFAQMRAPLEHHHHHH,soluble
24,MTDTQYIGRFAPSPSGELHFGSLIAALGSYLQARARQGRWLVRIEDIDPPREVPGAAETILRQLEHYGLHWDGDVLWQSQRHDAYREALAWLHEQGLSYYCTCTRARIQSIGGIYDGHCRVLHHGPDNAAVRIRQQHPVTQFTDQLRGIIHADEKLAREDFIIHRRDGLFAYNLAVVVDDHFQGVTEIVRGADLIEPTVRQISLYQLFGWKVPDYIHLPLALNPQGAKLSKQNHAPALPKGDPRPVLIAALQFLGQQAEAHWQDFSVEQILQSAVKNWRLTAVPESAIVNSTFSNASC,soluble
